Changes are numbered by the printed parent chain.
Assays:
[1] = molecular target: T1, Human Neutrophil Elastase (human, UniProt P08246); test: progressive inhibition of hNE substrate hydrolysis after addition of inhibitor
Experimental: The kinetic on-rates for the inhibitors reacting with hNE (kₒₙ) were determined from measurements of progressive inhibition of substrate hydrolytic activity by hNE following addition of inhibitor. For these experiments, a known concentration of inhibitor was added to a solution of hNE (0.847 nM) and substrate (25 μM) in 2 ml of reaction buffer in a plastic fluorescence cuvette. The change in fluorescence was recorded continuously following addition of the inhibitor. […] The enzymatic rate at selected times following addition of the inhibitor was determined from the slope of the tangent to the fluorescence time course at that time.
The kinetic constant kₒₙ for EPI-HNE-2 reacting with hNE was determined as follows. EPI-HNE-2 at 1.3 nM was added to buffer containing 0.867 nM hNE (I:E=1.5:1) at time 0.

Human Plasma Factor Xa = Human Plasma Factor Xa (human, UniProt P00742); test: enzyme inhibition assay; limit on the assumption of less than 10% inhibition at the highest concentration tested
Human Serum Kallikrein = Human Serum Kallikrein (human, UniProt P03952); test: as above
Human Serum Thrombin = Human Serum Thrombin (human, UniProt P00734); test: as above
Human Urine Urokinase = Human Urine Urokinase (human, UniProt P00749); test: as above
Human Serum Plasmin = Human Serum Plasmin (human, UniProt P00747); test: as above
[2] = molecular target: T1, Human Neutrophil Elastase; test: inhibition of hNE hydrolysis of a fluorogenic substrate, [hNE] = 8.47 × 10^-10 molar
Experimental: (§1) Inhibition constants for the proteins reacting with hNE (Kᵢ) were determined using RT measurements of hydrolysis of a fluorogenic substrate (N-methoxysuccinyl-Ala-Ala-Pro-Val-7-amino-4-methylcoumarin, Sigma M-9771) by hNE. […] The reactions were incubated at RT for 30 minutes. At the end of the incubation period, the fluorogenic substrate was added at a concentration of 25 μM and the time course for increase in fluorescence at 470 nm (excitation at 380 nm) due to enzymatic substrate cleavage was recorded using a spectrofluorimeter (Perkin-Elmer 650-15) and strip chart recorder. […] Kᵢ is related to Kₐₚₚₐᵣₑₙₜ by Kᵢ=Kₐₚₚₐᵣₑₙₜ×(1/(1+(S₀/Kₘ))). The correction is small compared to the possible errors in Kₐₚₚₐᵣₑₙₜ. Rates of enzymatic substrate cleavage were determined from the linear slopes of the recorded increases in fluorescence.
(§2) We recorded data used to determine Kᵢ for EPI-HNE-2 and EPI-HNE-3 reacting with hNE. Data obtained as described above are recorded as percent residual activity plotted as a function of added inhibitor. […] From the data, Kᵢ values for EPI-HNE-2 and for EPI-HNE-3 reacting with hNE at RT were calculated to be 4.8 pM and 6.2 pM, respectively.

[3] = molecular target: Human Pancreatic Chymotrypsin (human, UniProt P17538); test: enzyme inhibition assay; said to be probably not specific
[4] = molecular target: T1, Human Neutrophil Elastase; test: enzyme inhibition assay
Experimental: as §1, §2

[5] = molecular target: T1, Human Neutrophil Elastase; test: calculated by the filing from koff = KD × kon
From the text: […] […] B. Specificity.

[6] = molecular target: T1, Human Neutrophil Elastase; test: display phage eluted from hNE beads, normalized to MA-EpiNE7 in a concurrent elution
[7] = molecular target: T1, Human Neutrophil Elastase; test: display phage on hNE beads, extended pH fractionation
From the text: We characterized the binding properties to hNE-beads of MA-BITI and MA-BITI-E7 display phage using the extended pH fractionation procedure described in U.S. Pat. No. 5,223,409.

[8] = molecular target: T1, Human Neutrophil Elastase; test: pH elution of display phage from hNE beads, extended protocol
From the text: (§3) Total pfu applied to the beads are in column two. The fractions of this input pfu recovered in each pH fraction of the abbreviated pH elution protocol (pH 7.0, pH 3.5, and pH 2.0) are in the next three columns. For data obtained using the extended pH elution protocol, the pH 3.5 listing represents the sum of the fractions of input recovered in the pH 6.0, pH 5.5, pH 5.0, pH 4.5, pH 4.0, and pH 3.5 elution samples. The pH 2.0 listing is the sum of the fractions of input obtained from the pH 3.0, pH 2.5, and pH 2.0 elution samples. The total fraction of input pfu obtained throughout the pH elution protocol is in the sixth column. The final column of the table lists the total fraction of input pfu recovered, normalized to the value obtained for MA-BITI-E7-141 phage.

[9] = molecular target: T1, Human Neutrophil Elastase; test: estimated for the free domain from display phage binding to and elution from hNE beads
[10] = molecular target: T1, Human Neutrophil Elastase; test: pH elution of display phage from hNE beads, abbreviated protocol
From the text: as §3

[11] = molecular target: T1, Human Neutrophil Elastase; test: abbreviated fractionation of display phage on hNE beads
Experimental: To test if ITI-D1E7-display phage bind hNE beads, pH elution profiles were measured. Aliquots of EpiNE-7, MA-ITI-D1, and MA-ITI-D1E7 display phage were incubated with hNE beads for three hours at room temperature (RT). The beads were washed and phage were eluted as described in U.S. Pat. No. 5,223,409, except that only three pH elutions were performed.

B1: EPI-HNE-4 (designed binder)
chain: EACNLPIVRGPCIAFFPRWAFDAVKGKCVLFPYGGCQGNGNKFYSEKECREYCGVP
B1 showed a kon [1] of 1.06e+07 M⁻¹ s⁻¹, a Ki (Human Plasma Factor Xa) greater than 90000 nM and a Ki (Human Serum Kallikrein) greater than 90000 nM. The Ki (Human Serum Thrombin) was greater than 90000 nM, the Ki (Human Urine Urokinase) was greater than 90000 nM and the Ki (Human Serum Plasmin) was greater than 90000 nM. It also gave a Kd [2] of 0.0046 nM, a Ki [3] of roughly 10000 nM and a Ki [4] of 0.005 nM. It also gave a koff [5] of 4.9e-05 s⁻¹.

B2: MA-BITI display phage (designed binder)
chain: RPDFCQLGYSAGPCMGMTSRYFYNGTSMACETFQYGGCMGNGNNFVTEKDCLQTCRGA
For B2, the “Normalized fraction of input (relative to recovered MA-EpiNE7)” value [6] was 0.018 ratio, the “SUM, fraction of input from all pH elution fractions” value [7] was 3.9e-05 fraction of input and the “SUM, total pfu from all pH elution fractions” value [7] was 800000 pfu. The “pfu eluted at pH 2.0” value [7] was 7700 pfu, the “pfu eluted at pH 2.5” value [7] was 22000 pfu and the “pfu eluted at pH 3.0” value [7] was 22000 pfu. For the same binder, the “pfu eluted at pH 3.5” value [7] was 86000 pfu, the “pfu eluted at pH 4.0” value [7] was 31000 pfu and the “pfu eluted at pH 4.5” value [7] was 44000 pfu. For the same binder, the “pfu eluted at pH 5.0” value [7] was 96000 pfu, the “pfu eluted at pH 6.0” value [7] was 250000 pfu and the “pfu eluted at pH 7.0” value [7] was 240000 pfu. For the same binder, the “pfu/Input eluted at pH 2.0” value [7] was 3.8e-07 fraction of input, the “pfu/Input eluted at pH 2.5” value [7] was 1.1e-06 fraction of input and the “pfu/Input eluted at pH 3.0” value [7] was 1.1e-06 fraction of input. The “pfu/Input eluted at pH 3.5” value [7] was 4.3e-06 fraction of input, the “pfu/Input eluted at pH 4.0” value [7] was 1.6e-06 fraction of input and the “pfu/Input eluted at pH 4.5” value [7] was 2.2e-06 fraction of input. The “pfu/Input eluted at pH 5.0” value [7] was 4.8e-06 fraction of input, the “pfu/Input eluted at pH 6.0” value [7] was 1.2e-05 fraction of input and the “pfu/Input eluted at pH 7.0” value [7] was 1.2e-05 fraction of input.

B3: MUT1619 display phage (designed binder)
chain: B2 chain with M15V, T18F, E31Q, Q34V
With B3 the “Fraction of Input recovered at pH2.0” value [8] was 8.4e-05 fraction of input, the “Fraction of Input recovered at pH3.5” value [8] was 0.00099 fraction of input and the “Fraction of Input recovered at pH7.0” value [8] was 8.2e-05 fraction of input. The “Recovery Relative to BITI-E7-141” value [8] was 0.46 ratio, the “Recovery, Total fraction of input” value [8] was 0.0012 fraction of input and the “Estimated KD” value [9] was less than 0.01 nM.

B4: MUTT26A display phage (designed binder)
chain: B2 chain with M15V, G16A, T18F, S19P, T26A, E31Q, Q34V
For B4, the “Fraction of Input recovered at pH2.0” value [8] was 0.00033 fraction of input, the “Fraction of Input recovered at pH3.5” value [8] was 0.0019 fraction of input and the “Fraction of Input recovered at pH7.0” value [8] was 0.00025 fraction of input. The “Recovery Relative to BITI-E7-141” value [8] was 0.96 ratio, the “Recovery, Total fraction of input” value [8] was 0.0025 fraction of input and the “Estimated KD” value [9] was less than 0.01 nM.

B5: MA-BITI-E7-141 display phage (designed binder)
chain: B2 chain with M15V, G16A, T18F, S19P, E31Q, Q34V
With B5 the “Fraction of Input recovered at pH2.0” value [8] was 0.00032 fraction of input, the “Fraction of Input recovered at pH3.5” value [8] was 0.0021 fraction of input and the “Fraction of Input recovered at pH7.0” value [8] was 0.00021 fraction of input. For the same binder, the “Recovery Relative to BITI-E7-141” value [8] was 1 ratio, the “Recovery, Total fraction of input” value [8] was 0.0026 fraction of input and the “Estimated KD” value [9] was less than 0.01 nM. The “fold increase in total fraction of input eluted, relative to parental MA-BITI-E7” value [7] was 10 fold, the “Fraction of Input recovered at pH2.0” value [10] was 0.00054 fraction of input and the “Fraction of Input recovered at pH3.5” value [10] was 0.0018 fraction of input. The “Fraction of Input recovered at pH7.0” value [10] was 0.00022 fraction of input, the “Recovery Relative to BITI-E7-141” value [10] was 1 ratio and the “Recovery, Total fraction of input” value [10] was 0.0026 fraction of input.

B6: MA-BITI-E7 display phage (designed binder)
chain: B2 chain with M15V, G16A, T18F, S19P
In the case of B6, the “Normalized fraction of input (relative to recovered MA-EpiNE7)” value [6] is reported as 0.13 ratio, the “SUM, fraction of input from all pH elution fractions” value [7] is reported as 0.00029 fraction of input and the “SUM, total pfu from all pH elution fractions” value [7] is reported as 1.8e+06 pfu. For the same binder, the “pfu eluted at pH 2.0” value [7] was 8700 pfu, the “pfu eluted at pH 2.5” value [7] was 23000 pfu and the “pfu eluted at pH 3.0” value [7] was 89000 pfu. The “pfu eluted at pH 3.5” value [7] was 90000 pfu, the “pfu eluted at pH 4.0” value [7] was 240000 pfu and the “pfu eluted at pH 4.5” value [7] was 380000 pfu. The “pfu eluted at pH 5.0” value [7] was 370000 pfu, the “pfu eluted at pH 6.0” value [7] was 280000 pfu and the “pfu eluted at pH 7.0” value [7] was 280000 pfu. The “pfu/Input eluted at pH 2.0” value [7] was 1.4e-06 fraction of input, the “pfu/Input eluted at pH 2.5” value [7] was 3.8e-06 fraction of input and the “pfu/Input eluted at pH 3.0” value [7] was 1.5e-05 fraction of input. For the same binder, the “pfu/Input eluted at pH 3.5” value [7] was 1.5e-05 fraction of input, the “pfu/Input eluted at pH 4.0” value [7] was 4e-05 fraction of input and the “pfu/Input eluted at pH 4.5” value [7] was 6.3e-05 fraction of input. For the same binder, the “pfu/Input eluted at pH 5.0” value [7] was 6.2e-05 fraction of input, the “pfu/Input eluted at pH 6.0” value [7] was 4.7e-05 fraction of input and the “pfu/Input eluted at pH 7.0” value [7] was 4.7e-05 fraction of input.

B7: MUTQE display phage (designed binder)
chain: B2 chain with M15V, G16A, T18F, S19P, Q34V
With B7 the “Estimated KD” value [9] was less than 0.01 nM, the “Fraction of Input recovered at pH2.0” value [10] was 0.00053 fraction of input and the “Fraction of Input recovered at pH3.5” value [10] was 0.0016 fraction of input. For the same binder, the “Fraction of Input recovered at pH7.0” value [10] was 0.00012 fraction of input, the “Recovery Relative to BITI-E7-141” value [10] was 0.85 ratio and the “Recovery, Total fraction of input” value [10] was 0.0022 fraction of input.

B8: MA-BITI-E7-1222 display phage (designed binder)
chain: B2 chain with A11T, M15V, G16A, T18F, S19P
In the case of B8, the “Fraction of Input recovered at pH2.0” value [8] is reported as 6.4e-05 fraction of input, the “Fraction of Input recovered at pH3.5” value [8] is reported as 0.0004 fraction of input and the “Fraction of Input recovered at pH7.0” value [8] is reported as 7.2e-05 fraction of input. The “Recovery Relative to BITI-E7-141” value [8] was 0.21 ratio and the “Recovery, Total fraction of input” value [8] was 0.00054 fraction of input.

B9: MUTP1 display phage (designed binder)
chain: B2 chain with M15I, T18F
B9 was tested, and the “Fraction of Input recovered at pH2.0” value [10] was 0.00012 fraction of input, the “Fraction of Input recovered at pH3.5” value [10] was 0.00092 fraction of input and the “Fraction of Input recovered at pH7.0” value [10] was 0.00018 fraction of input. For the same binder, the “Recovery Relative to BITI-E7-141” value [10] was 0.46 ratio and the “Recovery, Total fraction of input” value [10] was 0.0012 fraction of input.

B10: MA-ITI-D1 display phage (other)
chain: KEDSCQLGYSAGPCMGMTSRYFYNGTSMACETFQYGGCMGNGNNFVTEKDCLQTCRTVGA
For B10, the “Normalized fraction of input (relative to recovered MA-EpiNE7)” value [6] was 0.0067 ratio, the “SUM, total fraction of input from all pH elution fractions” value [11] was 1.4e-05 fraction of input and the “fraction of input eluted at pH 2.0” value [11] was 1e-06 fraction of input. For the same binder, the “fraction of input eluted at pH 3.5” value [11] was 3e-06 fraction of input, the “fraction of input eluted at pH 7.0” value [11] was 1e-05 fraction of input and the “fraction of input in Wash” value [11] was 1e-05 fraction of input.

— patent US20060134087A1, “ITI-D1 Kunitz domain mutants as hNE inhibitors” (Dyax Corp., published 2006)
